Consider 2 molecules from paper PMC9440770.

The target in the experiment is fibrinogen (UniProt P02671). Briefly: SPR. For orientation: Surface plasmon resonance follows binding to a sensor surface in real time, without labels.
UniProt P02671, sequence (P02671 36-866, chain 1 of 3): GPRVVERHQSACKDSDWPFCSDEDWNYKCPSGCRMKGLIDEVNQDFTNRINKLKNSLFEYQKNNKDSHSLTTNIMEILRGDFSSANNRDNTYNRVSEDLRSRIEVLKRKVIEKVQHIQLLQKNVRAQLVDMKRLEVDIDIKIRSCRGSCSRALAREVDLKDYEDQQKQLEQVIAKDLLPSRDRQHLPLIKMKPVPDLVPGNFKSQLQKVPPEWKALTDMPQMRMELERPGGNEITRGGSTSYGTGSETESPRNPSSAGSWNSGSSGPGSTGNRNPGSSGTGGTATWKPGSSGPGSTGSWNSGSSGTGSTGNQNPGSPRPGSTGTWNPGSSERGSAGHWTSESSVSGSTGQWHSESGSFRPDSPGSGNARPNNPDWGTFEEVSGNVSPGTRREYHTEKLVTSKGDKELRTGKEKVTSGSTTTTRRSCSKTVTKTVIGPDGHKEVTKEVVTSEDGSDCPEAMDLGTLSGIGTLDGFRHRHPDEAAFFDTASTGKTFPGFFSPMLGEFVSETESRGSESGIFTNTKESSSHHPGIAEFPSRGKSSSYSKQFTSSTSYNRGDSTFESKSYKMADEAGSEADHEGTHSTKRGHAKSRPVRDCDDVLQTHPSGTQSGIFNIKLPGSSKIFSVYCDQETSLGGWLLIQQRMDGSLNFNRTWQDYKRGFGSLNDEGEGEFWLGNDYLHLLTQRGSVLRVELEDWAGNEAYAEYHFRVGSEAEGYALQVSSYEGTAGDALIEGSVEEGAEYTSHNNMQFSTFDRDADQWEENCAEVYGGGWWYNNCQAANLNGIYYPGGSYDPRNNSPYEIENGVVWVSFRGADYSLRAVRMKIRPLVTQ
UniProt P02671, sequence (P02675 45-491, chain 2 of 3, further chain): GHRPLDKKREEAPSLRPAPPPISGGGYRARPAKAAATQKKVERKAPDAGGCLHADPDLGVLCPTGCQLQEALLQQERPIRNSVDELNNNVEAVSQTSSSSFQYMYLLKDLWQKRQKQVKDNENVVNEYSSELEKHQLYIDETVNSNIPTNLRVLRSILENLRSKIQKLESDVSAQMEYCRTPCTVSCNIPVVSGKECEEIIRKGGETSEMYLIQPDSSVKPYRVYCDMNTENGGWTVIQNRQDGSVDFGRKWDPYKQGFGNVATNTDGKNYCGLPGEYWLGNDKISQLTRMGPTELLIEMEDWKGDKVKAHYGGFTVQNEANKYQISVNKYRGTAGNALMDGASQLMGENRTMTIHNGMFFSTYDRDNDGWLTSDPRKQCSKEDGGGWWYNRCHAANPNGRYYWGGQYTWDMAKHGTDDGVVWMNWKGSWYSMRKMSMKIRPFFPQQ
UniProt P02671, sequence (P02679 27-453, chain 3 of 3, further chain): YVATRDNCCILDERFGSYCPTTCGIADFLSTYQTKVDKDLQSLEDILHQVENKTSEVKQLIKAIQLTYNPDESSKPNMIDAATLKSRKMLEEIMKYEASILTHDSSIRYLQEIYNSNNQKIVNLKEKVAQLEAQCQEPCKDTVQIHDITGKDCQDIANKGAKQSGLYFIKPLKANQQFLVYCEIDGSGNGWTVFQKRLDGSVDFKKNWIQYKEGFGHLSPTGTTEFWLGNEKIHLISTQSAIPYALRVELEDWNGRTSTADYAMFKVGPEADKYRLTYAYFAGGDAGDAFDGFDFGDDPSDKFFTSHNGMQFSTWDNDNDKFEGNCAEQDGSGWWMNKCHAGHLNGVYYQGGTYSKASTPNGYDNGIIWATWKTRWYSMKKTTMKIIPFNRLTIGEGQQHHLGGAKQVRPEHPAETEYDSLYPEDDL

B1: human αX I-domain (residues Q129 to G319), wild type (domain or fragment)
chain: QEQDIVFLIDGSGSISSRNFATMMNFVRAVISQFQRPSTQFSLMQFSNKFQTHFTFEEFRRSSNPLSLLASVHQLQGFTYTATAIQNVVHRLFHASYGARRDAAKILIVITDGKKEGDSLDYKDVIPMADAAGIIRYAIGVGLAFQNRNSWKELNDIASKPSQEHIFKVEDFDALKDIQNQLKEKIFAIEG
Turning to B1, the dissociation constant (Kd) stood at 20 µM.

B2: human αX I-domain I314G construct (domain or fragment)
chain: QEQDIVFLIDGSGSISSRNFATMMNFVRAVISQFQRPSTQFSLMQFSNKFQTHFTFEEFRRSSNPLSLLASVHQLQGFTYTATAIQNVVHRLFHASYGARRDAAKILIVITDGKKEGDSLDYKDVIPMADAAGIIRYAIGVGLAFQNRNSWKELNDIASKPSQEHIFKVEDFDALKDIQNQLKEKGFAIEG
For the molecule B2, the Kd came to 100 µM.

A word on the Kd: it is the equilibrium constant for the complex coming apart.
